Assays:
Conditions in all cases: both partners purified
[1] = target: T1, mCherry-WIPI3 (UniProt Q5MNZ6 1-344); experiment: microscopy-based bead assay; GFP-tagged bait on GFP-trap agarose beads, mCherry-tagged prey in solution, confocal imaging
T1 construct: 6xHis-TEV-mCherry tag; also called mCherry-tagged WIPI3; source: E. coli Rosetta pLysS, purified; not shown: mCherry, N-terminal, kept

[2] = target: T2, mCherry-tagged WIPI1 (UniProt Q5MNZ9 1-446); experiment: microscopy-based bead assay; GST-tagged bait on Glutathione Sepharose 4B beads, GFP- or mCherry-tagged prey in solution, confocal imaging
T2 construct: WIPI1; called purified WIPI1-4 in the results
T2 sequence (looked up): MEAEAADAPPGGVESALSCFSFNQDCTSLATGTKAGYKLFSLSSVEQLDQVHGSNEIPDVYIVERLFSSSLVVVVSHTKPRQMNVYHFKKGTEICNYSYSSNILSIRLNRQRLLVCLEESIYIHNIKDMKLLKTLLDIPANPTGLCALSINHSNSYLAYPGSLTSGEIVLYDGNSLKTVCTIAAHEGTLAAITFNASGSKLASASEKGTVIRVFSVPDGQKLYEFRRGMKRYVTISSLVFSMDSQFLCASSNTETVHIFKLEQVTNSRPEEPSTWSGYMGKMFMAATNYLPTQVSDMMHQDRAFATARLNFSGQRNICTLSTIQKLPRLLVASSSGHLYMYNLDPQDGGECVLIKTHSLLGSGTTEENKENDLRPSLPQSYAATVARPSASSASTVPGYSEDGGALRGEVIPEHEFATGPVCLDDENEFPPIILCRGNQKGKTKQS

[3] = target: GST-WIPI3 (UniProt Q5MNZ6 1-344); experiment: as above

B1: GFP-tagged ATG13 (191–230 aa) (peptide, UniProt O75143 191-230, looked up)
chain: INLAFMSTRQFERTPPIMGIIIDHFVDRPYPSSSPMHPCN
notes: Addgene number by the order of printing; source: E. coli Rosetta pLysS, purified; not shown: EGFP, N-terminal, kept
B1: binds [1].

B2: NIX(1–182)-GST (domain or fragment)
chain: not shown
notes: NIX (BNIP3L), human, cytosol-exposed domain, residues 1-182; transmembrane domain replaced by GST; also called NIX-GST; GST-tagged NIX; source: E. coli Rosetta pLysS, purified; not shown: GST, C-terminal, kept
B2: binds [2].

B3: mCherry-tagged ATG13 IDR (191–517 aa) (domain or fragment, UniProt O75143 191-517, looked up)
chain: INLAFMSTRQFERTPPIMGIIIDHFVDRPYPSSSPMHPCNYRTAGEDTGVIYPSVEDSQEVCTTSFSTSPPSQLSSSRLSYQPAALGVGSADLAYPVVFAAGLNATHPHQLMVPGKEGGVPLAPNQPVHGTQADQERLATCTPSDRTHCAATPSSSEDTETVSNSSEGRASPHDVLETIFVRKVGAFVNKPINQVTLTSLDIPFAMFAPKNLELEDTDPMVNPPDSPETESPLQGSLHSDGSSGGSSGNTHDDFVMIDFKPAFSKDDILPMDLGTFYREFQNPPQLSSLSIDIGAQSMAEDLDSLPEKLAVHEKNVREFDAFVETLQ
notes: also called mCh-IDR; source: E. coli Rosetta pLysS, purified; not shown: mCherry, N-terminal, kept
B3: binds [3].

B4: GFP-tagged ATG13 IDR (191–517 aa) (domain or fragment, UniProt O75143 191-517, looked up)
chain: INLAFMSTRQFERTPPIMGIIIDHFVDRPYPSSSPMHPCNYRTAGEDTGVIYPSVEDSQEVCTTSFSTSPPSQLSSSRLSYQPAALGVGSADLAYPVVFAAGLNATHPHQLMVPGKEGGVPLAPNQPVHGTQADQERLATCTPSDRTHCAATPSSSEDTETVSNSSEGRASPHDVLETIFVRKVGAFVNKPINQVTLTSLDIPFAMFAPKNLELEDTDPMVNPPDSPETESPLQGSLHSDGSSGGSSGNTHDDFVMIDFKPAFSKDDILPMDLGTFYREFQNPPQLSSLSIDIGAQSMAEDLDSLPEKLAVHEKNVREFDAFVETLQ
notes: also called full IDR; full-length IDR; source: E. coli Rosetta pLysS, purified; not shown: EGFP, N-terminal, kept
B4: binds [1].

B5: GFP-tagged ATG13 IDR Δ191–205 (205–517 aa) (domain or fragment, UniProt O75143 205-517, looked up)
chain: PPIMGIIIDHFVDRPYPSSSPMHPCNYRTAGEDTGVIYPSVEDSQEVCTTSFSTSPPSQLSSSRLSYQPAALGVGSADLAYPVVFAAGLNATHPHQLMVPGKEGGVPLAPNQPVHGTQADQERLATCTPSDRTHCAATPSSSEDTETVSNSSEGRASPHDVLETIFVRKVGAFVNKPINQVTLTSLDIPFAMFAPKNLELEDTDPMVNPPDSPETESPLQGSLHSDGSSGGSSGNTHDDFVMIDFKPAFSKDDILPMDLGTFYREFQNPPQLSSLSIDIGAQSMAEDLDSLPEKLAVHEKNVREFDAFVETLQ
notes: as for B1
B5: binds [1].

B6: GFP-tagged ATG13 (206–230 aa) (peptide, UniProt O75143 206-230, looked up)
chain: PIMGIIIDHFVDRPYPSSSPMHPCN
notes: ATG13, residues 206-230; Addgene number by the order of printing; also called ATG13 IDR fragment residues 206–230; source: E. coli Rosetta pLysS, purified; not shown: EGFP, N-terminal, kept
B6: binds [1].
